The source of these data is patent US20100015637A1 (AbbVie / Abbott, published 2010).

For experiment [1], the target named is human PlGF-1 comprising amino acids 1-137 produced in human embryonic kidney cells (human) (UniProt P49763). Briefly: Format 3 Quantikine ELISA, capture MAb264, detection Pb264; sFlt-1 153 pmol/L (ratio 5).
Experiment [2] has the same target. Briefly: Format 3 Quantikine ELISA, capture MAb264, detection Pb264; sFlt-1 920 pmol/L (ratio 30).
Experiment [3] deals with recombinant human PlGF-1 (comprising amino acids 1-131) expressed in E. coli (R&D Systems) (human) (UniProt P49763). Description: … sandwich, capture MAb826, detection pAb264; antigen 15 pg/mL.
Experiment [4] has as its target T1, CHO human PlGF-1 fragment (comprising amino acids 17-131; ATCC PTA-8540) (human, UniProt P49763 35-221).
T1 sequence: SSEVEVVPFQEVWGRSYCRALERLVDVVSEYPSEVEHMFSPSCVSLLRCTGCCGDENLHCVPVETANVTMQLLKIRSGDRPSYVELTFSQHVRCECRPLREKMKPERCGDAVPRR
Description: … sandwich, capture MAb826, detection pAb264; antigen 0 pg/mL (blank).

Experiment [5] deals with T2, CHO human PlGF-1 comprising amino acids 1-137 (human PlGF-1-His (1-131), CHO 6305) (human, UniProt P49763 19-221, N-glycans at N21 (completely glycosylated) and N89 (partially glycosylated)).
T2 construct: Mature human PlGF-1 with 6xHis tag (137 amino acids); also called CHO (1-137)
T2 sequence: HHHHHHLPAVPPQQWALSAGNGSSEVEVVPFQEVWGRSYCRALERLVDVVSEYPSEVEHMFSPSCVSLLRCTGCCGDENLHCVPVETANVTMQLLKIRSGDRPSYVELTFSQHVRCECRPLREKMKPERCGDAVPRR
The description is as above.

The target of experiment [6] is T3, human PlGF-1 comprising amino acids 1-137 produced in human embryonic kidney cells (human, UniProt P49763 19-221).
T3 construct: Mature human PlGF-1 with 6xHis tag; also called HEK (1-137); full length HEK human PlGF-1 (1-137)
T3 sequence: T2 sequence
The description is as above.

The target of experiment [7] is T4, human PlGF-1 fragment (comprising amino acids 17-131) produced in human embryonic kidney cells (human, UniProt P49763 35-221).
T4 sequence: T1 sequence
The description is as above.

Experiment [8] concerns the target T1, CHO human PlGF-1 fragment (comprising …). Description: … sandwich, capture MAb255, detection MAb826; antigen 15 pg/mL. The essentials: (§1)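 Human PlGF-1 antigen preparations, including recombinant forms expressed in CHO cells, were tested at 0 to 1500 pg/mL in a sandwich immunoassay. The capture antibody was a monoclonal anti-human PlGF-1 antibody immobilized on magnetic microparticles by passive coating and EDAC cross-linking. Detection used an acridinium ester-labeled monoclonal anti-human PlGF-1 antibody. Signal was recorded as chemiluminescent relative light units (RLU) at each antigen level.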

In experiment [9] the target is T2, CHO human PlGF-1 comprising amino acids …. Described as above. The essentials: as §1
Experiment [10] addresses T3, human PlGF-1 comprising amino acids …. The description is as above. Summed up: as §1
Experiment [11] addresses T4, human PlGF-1 fragment (comprising amino …). Described as above. The essentials: as §1
Experiment [12] addresses T2, CHO human PlGF-1 comprising amino acids …. Briefly: … sandwich, capture MAb255, detection pAb264; antigen 750 pg/mL.
Experiment [13] addresses T3, human PlGF-1 comprising amino acids …. Described as above.
The target in experiment [14] is T4, human PlGF-1 fragment (comprising amino …). The description is as above.
Experiment [15] deals with T1, CHO human PlGF-1 fragment (comprising …). Description: … sandwich, capture MAb255, detection MAb826; antigen 0 pg/mL (blank). Summed up:
as §1

Experiment [16] addresses T2, CHO human PlGF-1 comprising amino acids …. The experiment is described as above. The essentials:
as §1

Experiment [17] addresses T3, human PlGF-1 comprising amino acids …. Described as above. Summed up: as §1
Experiment [18] addresses T4, human PlGF-1 fragment (comprising amino …). Described as above. Summed up: as §1

For the molecule “native sFlt-1, isolated from human placental tissue (from UniProt P17948 27-687) (receptor)”, in experiment [1], the % Inhibition was 24.6% and the PlGF-1 Measured was found to be 652 pg/mL. In addition, in experiment [2], the % Inhibition was 45% and the PlGF-1 Measured was determined as 476 pg/mL.

B1: monoclonal antibody 2-826-335 (produced by murine hybridoma cell line 2-826-335, ATCC PTA-8539) (antibody, mouse IgG1, V domains shown)
VH: QVQLKQSGPGLVQPSQSLSITCTVSGFSLTTYGIHWVRQSPGKGLEWLGVMWSGGDTDYDAAFISRLSISKDNSKSQVFFKMNSLQANDTGIYYCARYRFYGMDYWGQGTSVTVSS
VL: AIQMTQSSSSFSVSLGDRVTITCKASEDIYNRFAWYQQKPGNAPRLLISGAASLEAGVPSRFSGSGSGQDYTLSITSLQTEDVATYYCQQYWSTPWTFGGGTKLEIKR
notes: also called MAb826
As for B1, the RLU amounted to 19600 RLU in experiment [3]; 6680 RLU in experiment [4]; 6600 RLU in [5]; 6530 RLU in experiment [6]; 6590 RLU in experiment [7].

B2: monoclonal antibody 1-255-713 (produced by murine hybridoma cell line 1-255-713, ATCC PTA-8536) (antibody, mouse IgG2a, V domains shown)
VH: QVHLQQSGAELMKPGASVKISCKATGYTFSSYWIEWVKQRPGHGLEWIGEILPGSVSNNFNEKFKDKATLTADPSSNTAYIQVSSLTSEDSAVYYCARSTGFYYGGNYFDHWGQGTTLAVSS
VL: DVVMTQTPLSLPVSPGDQASISCRSSQSLVHSNGHTYLHWYLQKPGQSPKLLIYKVSNRFSGVPDRVSGSGSGTDFTLKISRVEAEDLGVYFCSQSTHVPPTFGGGTKLEIKR
notes: also called MAb255
Regarding B2, the RLU in experiment [8] came to 13300 RLU; in [9] it was 14500 RLU; in [10], 26700 RLU; in experiment [11], 17200 RLU; in experiment [12] it was 599000 RLU; in experiment [13] it was 1.31e+06 RLU. In addition, the RLU amounted to 908000 RLU in experiment [14]; 5940 RLU in experiment [15]; 6270 RLU in experiment [16]; 6110 RLU in [17]; 5760 RLU in experiment [18].
